Experimental data published in PMC6599211, “Structural basis of TFIIH activation for nucleotide excision repair” (Nature Communications, 2019).
One block for each binder: values may come before it.

Tests used:
[1] = molecular target: XPB (core TFIIH);XPD (core TFIIH);p62 (core TFIIH);p52 (core TFIIH);p44 (core TFIIH);p34 (core TFIIH);TTDA/p8 … (Homo sapiens;Homo sapiens;Homo …, UniProt P19447;P18074;P32780;Q92759;Q13888;Q13889;Q6ZYL4;P23025 …, |||||||); assay: cryo-EM structure (3.6 A); 2 mM Mg2+ at assembly; XPG E791A added (3:1 excess over TFIIH) but not visible in the map; glutaraldehyde-fixed gradient; DNA register shift not excluded; Complex assembly: 150 mM KCl, 20 mM KOH:HEPES pH 7.0, 10% glycerol, 2 mM MgCl2, 5 mM beta-mercaptoethanol; sucrose gradient pH 7.5, 4 C, 0.1% glutaraldehyde; helicase/triplex assays (turnover) left out; conditions: copies: 1;1;1;1;1;1;1;1; fork, 29 bp duplex 1:21-49 with 2:1-29; unpaired arms 20 nt 5' (strand 1: 1-20) and 20 nt 3' (strand 2: 30-49)
[2] = molecular target: human TFIIH core module (core TFIIH), seven subunits: XPB, XPD, p62, p52, p44, p34, TTDA (human, UniProt P19447 1-782; P18074 1-760; P32780 1-548; Q92759 1-462; Q13888 1-395; Q13889 …); assay: cell-based or functional assay

B1: cryo-EM DNA scaffold (forked) (mixed)
DNA 1: CAAAGTCACGACCTAGACACTGCGAGCTCGAATTCACTGGAGTGACCTC
DNA 2: GAGGTCACTCCAGTGAATTCGAGCTCGCAACAATGAGCACATACCTAGT
binding result [1]: binds

XPD 5′–3′ helicase activity of core TFIIH (rate of DNA unwinding, stopped-flow kinetics), with XPG against without [2]: 20 fold
B2: XPG (natural protein, human, UniProt P28715 1-1186, looked up)
chain: MGVQGLWKLLECSGRQVSPEALEGKILAVDISIWLNQALKGVRDRHGNSIENPHLLTLFHRLCKLLFFRIRPIFVFDGDAPLLKKQTLVKRRQRKDLASSDSRKTTEKLLKTFLKRQAIKTAFRSKRDEALPSLTQVRRENDLYVLPPLQEEEKHSSEEEDEKEWQERMNQKQALQEEFFHNPQAIDIESEDFSSLPPEVKHEILTDMKEFTKRRRTLFEAMPEESDDFSQYQLKGLLKKNYLNQHIEHVQKEMNQQHSGHIRRQYEDEGGFLKEVESRRVVSEDTSHYILIKGIQAKTVAEVDSESLPSSSKMHGMSFDVKSSPCEKLKTEKEPDATPPSPRTLLAMQAALLGSSSEEELESENRRQARGRNAPAAVDEGSISPRTLSAIKRALDDDEDVKVCAGDDVQTGGPGAEEMRINSSTENSDEGLKVRDGKGIPFTATLASSSVNSAEEHVASTNEGREPTDSVPKEQMSLVHVGTEAFPISDESMIKDRKDRLPLESAVVRHSDAPGLPNGRELTPASPTCTNSVSKNETHAEVLEQQNELCPYESKFDSSLLSSDDETKCKPNSASEVIGPVSLQETSSIVSVPSEAVDNVENVVSFNAKEHENFLETIQEQQTTESAGQDLISIPKAVEPMEIDSEESESDGSFIEVQSVISDEELQAEFPETSKPPSEQGEEELVGTREGEAPAESESLLRDNSERDDVDGEPQEAEKDAEDSLHEWQDINLEELETLESNLLAQQNSLKAQKQQQERIAATVTGQMFLESQELLRLFGIPYIQAPMEAEAQCAILDLTDQTSGTITDDSDIWLFGARHVYRNFFNKNKFVEYYQYVDFHNQLGLDRNKLINLAYLLGSDYTEGIPTVGCVTAMEILNEFPGHGLEPLLKFSEWWHEAQKNPKIRPNPHDTKVKKKLRTLQLTPGFPNPAVAEAYLKPVVDDSKGSFLWGKPDLDKIREFCQRYFGWNRTKTDESLFPVLKQLDAQQTQLRIDSFFRLAQQEKEDAKRIKSQRLNRAVTCMLRKEKEAAASEIEAVSVAMEKEFELLDKAKGKTQKRGITNTLEESSSLKRKRLSDSKGKNTCGGFLGETCLSESSDGSSSEDAESSSLMNVQRRTAAKEPKTSASDSQNSVKEAPVKNGGATTSSSSDSDDDGGKEKMVLVTARSVFGKKRRKLRRARGRKRKT
